# Results taken from patent publication US20160000910A1.
# Assays:
# [1] = target: Aβ1-42 peptide fraction consisting primarily of monomers (LMW monomer fraction from SEC); assay: ELISA on coated fraction; antibody dilution 1:32 (starting dilution 0.5 µg/ml); assay 3
# [2] = target: Aβ1-42 peptide fraction enriched in oligomers (high molecular weight fraction from SEC); assay: ELISA on coated fraction; antibody dilution 1:128 (starting dilution 0.5 µg/ml); assay 1
# [3] = target: Aβ1-42 peptide fraction consisting primarily of monomers (LMW monomer fraction from SEC); assay: as above
# [4] = target: Aβ1-42 peptide fraction enriched in oligomers (high molecular weight fraction from SEC); assay: ELISA on coated fraction; antibody dilution 1:2 (starting dilution 0.5 µg/ml); assay 3
# [5] = target: Aβ1-42 peptide fraction consisting primarily of monomers (LMW monomer fraction from SEC); assay: as above
# [6] = target: Aβ1-42 peptide fraction enriched in oligomers (high molecular weight fraction from SEC); assay: ELISA on coated fraction; antibody dilution 1:32 (starting dilution 0.5 µg/ml); assay 1
# [7] = target: Aβ1-42 peptide fraction consisting primarily of monomers (LMW monomer fraction from SEC); assay: as above
# [8] = target: Aβ1-42 peptide fraction enriched in oligomers (high molecular weight fraction from SEC); assay: ELISA on coated fraction; antibody dilution 1:8 (starting dilution 0.5 µg/ml); mean of 3 assays
# [9] = target: Aβ1-42 peptide fraction enriched in oligomers (high molecular weight fraction from SEC); assay: ELISA on coated fraction; antibody dilution 1:16 (starting dilution 0.5 µg/ml); assay 3
# [10] = target: Aβ1-42 peptide fraction consisting primarily of monomers (LMW monomer fraction from SEC); assay: as above
# [11] = target: Aβ1-42 peptide fraction enriched in oligomers (high molecular weight fraction from SEC); assay: ELISA on coated fraction; antibody dilution 1:2 (starting dilution 0.5 µg/ml); assay 2
# [12] = target: Aβ1-42 peptide fraction consisting primarily of monomers (LMW monomer fraction from SEC); assay: as above
# [13] = target: Aβ1-42 peptide fraction enriched in oligomers (high molecular weight fraction from SEC); assay: ELISA on coated fraction; antibody dilution 1:2 (starting dilution 0.5 µg/ml); assay 1
# [14] = target: Aβ1-42 peptide fraction consisting primarily of monomers (LMW monomer fraction from SEC); assay: as above
# [15] = target: Aβ1-42 peptide fraction enriched in oligomers (high molecular weight fraction from SEC); assay: ELISA on coated fraction; antibody dilution 1:64 (starting dilution 0.5 µg/ml); assay 1
# [16] = target: Aβ1-42 peptide fraction consisting primarily of monomers (LMW monomer fraction from SEC); assay: as above
# [17] = target: Aβ1-42 peptide fraction enriched in oligomers (high molecular weight fraction from SEC); assay: ELISA on coated fraction; antibody dilution 1:8 (starting dilution 0.5 µg/ml); assay 1
# [18] = target: Aβ1-42 peptide fraction consisting primarily of monomers (LMW monomer fraction from SEC); assay: as above
# [19] = target: Aβ1-42 peptide fraction enriched in oligomers (high molecular weight fraction from SEC); assay: ELISA on coated fraction; antibody dilution 1:1 (starting dilution 0.5 µg/ml); assay 2
# [20] = target: Aβ1-42 peptide fraction consisting primarily of monomers (LMW monomer fraction from SEC); assay: as above
# [21] = target: Aβ1-42 peptide fraction enriched in oligomers (high molecular weight fraction from SEC); assay: ELISA on coated fraction; antibody dilution 1:128 (starting dilution 0.5 µg/ml); assay 3
# [22] = target: Aβ1-42 peptide fraction consisting primarily of monomers (LMW monomer fraction from SEC); assay: as above
# [23] = target: Aβ1-42 peptide fraction enriched in oligomers (high molecular weight fraction from SEC); assay: ELISA on coated fraction; antibody dilution 1:128 (starting dilution 0.5 µg/ml); assay 2
# [24] = target: Aβ1-42 peptide fraction consisting primarily of monomers (LMW monomer fraction from SEC); assay: as above
# [25] = target: Aβ1-42 peptide fraction enriched in oligomers (high molecular weight fraction from SEC); assay: ELISA on coated fraction; antibody dilution 1:4 (starting dilution 0.5 µg/ml); mean of 3 assays
# [26] = target: Aβ1-42 peptide fraction consisting primarily of monomers (LMW monomer fraction from SEC); assay: as above
# [27] = target: Aβ1-42 peptide fraction enriched in oligomers (high molecular weight fraction from SEC); assay: ELISA on coated fraction; antibody dilution 1:1 (starting dilution 0.5 µg/ml); assay 1
# [28] = target: Aβ1-42 peptide fraction consisting primarily of monomers (LMW monomer fraction from SEC); assay: as above
substance,measurement,setting,value
control antibody 6E10,O.D. (O.D. at 405 nm),[1],1.54
same,O.D. (O.D. at 405 nm),[2],0.62
same,O.D. (O.D. at 405 nm),[3],0.64
same,O.D. (O.D. at 405 nm),[4],3.83
same,O.D. (O.D. at 405 nm),[5],4
same,O.D. (O.D. at 405 nm),[6],1.27
same,O.D. (O.D. at 405 nm),[7],1.18
same,O.D. (mean) (O.D. at 405 nm),[8],2.98
same,O.D. (O.D. at 405 nm),[9],2.07
same,O.D. (O.D. at 405 nm),[10],2.23
same,O.D. (O.D. at 405 nm),[11],3.55
same,O.D. (O.D. at 405 nm),[12],3.48
same,O.D. (O.D. at 405 nm),[13],3.39
same,O.D. (O.D. at 405 nm),[14],3.3
same,O.D. (O.D. at 405 nm),[15],0.93
same,O.D. (O.D. at 405 nm),[16],0.81
same,O.D. (O.D. at 405 nm),[17],2.73
same,O.D. (O.D. at 405 nm),[18],2.67
same,O.D. (O.D. at 405 nm),[19],3.67
same,O.D. (O.D. at 405 nm),[20],3.77
same,O.D. (O.D. at 405 nm),[21],0.66
same,O.D. (O.D. at 405 nm),[22],0.86
same,O.D. (O.D. at 405 nm),[23],0.61
same,O.D. (O.D. at 405 nm),[24],0.75
same,O.D. (mean) (O.D. at 405 nm),[25],3.37
same,O.D. (mean) (O.D. at 405 nm),[26],3.27
same,O.D. (O.D. at 405 nm),[27],3.36
same,O.D. (O.D. at 405 nm),[28],3.67
